Tests used:
Test in all cases: cell-based or functional assay
[1] = molecular target: HIV-1 MGRM-G-016 Env (HIV-1)
[2] = molecular target: HIV-1 IAVI-C3 Env (HIV-1)
[3] = molecular target: HIV-1 MGRM-C-020 Env on pseudovirus (HIV-1)
[4] = molecular target: HIV-1 MGRM-C-014 Env on pseudovirus (HIV-1)
[5] = molecular target: HIV-1 MGRM-AG-008 Env (HIV-1)
[6] = molecular target: HIV-1 MGRM-D-003 Env (HIV-1)
[7] = molecular target: HIV-1 MGRM-AG-003 Env (HIV-1)
[8] = molecular target: HIV-1 MGRM-G-014 Env (HIV-1)
[9] = molecular target: HIV-1 MGRM-C-001 Env on pseudovirus (HIV-1)
[10] = molecular target: HIV-1 IAVI-C22 Env (HIV-1)
[11] = molecular target: HIV-1 JRFL Env on pseudovirus (HIV-1)
[12] = molecular target: HIV-1 MGRM-D-020 Env (HIV-1)
[13] = molecular target: HIV-1 APV_13 Env on pseudovirus (HIV-1)
[14] = molecular target: HIV-1 MGRM-G-001 Env (HIV-1)
[15] = molecular target: HIV-1 MGRM-C-024 Env on pseudovirus (HIV-1)
[16] = molecular target: HIV-1 92BR020 Env on pseudovirus (HIV-1)
[17] = molecular target: HIV-1 NL43 Env on pseudovirus (HIV-1)
[18] = molecular target: HIV-1 MGRM-D-002 Env (HIV-1)
[19] = molecular target: HIV-1 MGRM-AG-009 Env (HIV-1)
[20] = molecular target: HIV-1 MGRM-C-012 Env on pseudovirus (HIV-1)
[21] = molecular target: HIV-1 APV-13 Env (HIV-1)
[22] = molecular target: HIV-1 MGRM-C-023 Env on pseudovirus (HIV-1)
[23] = molecular target: HIV-1 98CN009 Env on pseudovirus (HIV-1)
[24] = molecular target: HIV-1 92TH021 Env (HIV-1)
[25] = molecular target: HIV-1 6535.3 (Acute) Env on pseudovirus (HIV-1)
[26] = molecular target: HIV-1 MGRM-AG-011 Env (HIV-1)
[27] = molecular target: HIV-1 MGRM-F1-015 Env (HIV-1)
[28] = molecular target: HIV-1 MGRM-F1-010 Env (HIV-1)
[29] = molecular target: HIV-1 MGRM-Chronic-B-011 Env on pseudovirus (HIV-1)
[30] = molecular target: HIV-1 APV-17 Env (HIV-1)
[31] = molecular target: HIV-1 MGRM-D-021 Env (HIV-1)
[32] = molecular target: HIV-1 MGRM-AG-005 Env (HIV-1)
[33] = molecular target: HIV-1 MGRM-AE-006 Env (HIV-1)
[34] = molecular target: HIV-1 MGRM-F1-021 Env (HIV-1)
[35] = molecular target: HIV-1 MGRM-F1-020 Env (HIV-1)
[36] = molecular target: HIV-1 92RW020 Env (HIV-1)
[37] = molecular target: HIV-1 93UG077 Env (HIV-1)
[38] = molecular target: HIV-1 MGRM-D-024 Env (HIV-1)
[39] = molecular target: HIV-1 MGRM-G-019 Env (HIV-1)
[40] = molecular target: HIV-1 MGRM-C-004 Env on pseudovirus (HIV-1)
[41] = molecular target: HIV-1 NL43 Env (HIV-1)
[42] = molecular target: HIV-1 MGRM-G-015 Env (HIV-1)
[43] = molecular target: HIV-1 MGRM-G-024 Env (HIV-1)
[44] = molecular target: HIV-1 MGRM-G-025 Env (HIV-1)
[45] = molecular target: HIV-1 MGRM-AG-012 Env (HIV-1)
[46] = molecular target: HIV-1 MGRM-Chronic-B-020 Env on pseudovirus (HIV-1)
[47] = molecular target: HIV-1 MGRM-C-025 Env on pseudovirus (HIV-1)
[48] = molecular target: HIV-1 93IN905 Env (HIV-1)
[49] = molecular target: aMLV envelope
[50] = molecular target: HIV-1 MGRM-D-014 Env (HIV-1)
[51] = molecular target: HIV-1 94UG103 Env (HIV-1)
[52] = molecular target: HIV-1 MGRM-G-028 Env (HIV-1)

1443_C16 (PG16) (TCN-116) (antibody), sequence (VH): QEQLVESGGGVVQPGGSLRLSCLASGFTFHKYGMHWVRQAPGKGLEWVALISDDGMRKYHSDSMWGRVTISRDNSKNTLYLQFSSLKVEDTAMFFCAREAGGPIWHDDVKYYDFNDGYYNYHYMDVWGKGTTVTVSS
1443_C16 (PG16) (TCN-116) (antibody), sequence (VL): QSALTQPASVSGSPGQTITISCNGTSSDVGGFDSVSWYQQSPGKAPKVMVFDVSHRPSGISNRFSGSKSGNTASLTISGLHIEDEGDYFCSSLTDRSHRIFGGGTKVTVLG

Q: What does the source list for 1443_C16 (PG16) (TCN-116) (antibody)?
A: IC50 (µg/ml), pseudovirus neutralization [1]: 11.3 µg/mL; neutralization IC50 [2]: 14.8 µg/mL; neutralization IC90 [2]: > 50 µg/mL; IC50 [3]: > 50 µg/mL; IC50 [4]: > 50 µg/mL; IC50 (µg/ml), pseudovirus neutralization [5]: 0.002 µg/mL; IC50 (µg/ml), pseudovirus neutralization [6]: 0.01 µg/mL; IC50 (µg/ml), pseudovirus neutralization [7]: > 50 µg/mL; IC50 (µg/ml), pseudovirus neutralization [8]: 6.98 µg/mL; IC50 [9]: 16.8 µg/mL; neutralization IC50 [10]: 0.0687 µg/mL; neutralization IC90 [10]: > 50 µg/mL; IC50 [11]: > 50 µg/mL; IC50 (µg/ml), pseudovirus neutralization [12]: 16.3 µg/mL; IC50 [13]: > 50 µg/mL; IC50 (µg/ml), pseudovirus neutralization [14]: 0.15 µg/mL; IC50 [15]: 0.04 µg/mL; IC50 [16]: > 50 µg/mL; IC50 [17]: 0.02 µg/mL; IC50 (µg/ml), pseudovirus neutralization [18]: 0.01 µg/mL; IC50 (µg/ml), pseudovirus neutralization [19]: > 50 µg/mL; IC50 [20]: 0.48 µg/mL; neutralization IC50 [21]: > 50 µg/mL; neutralization IC90 [21]: > 50 µg/mL; IC50 [22]: 0.09 µg/mL; IC50 [23]: 5.76 µg/mL; IC50 (µg/ml), pseudovirus neutralization [24]: 0.1 µg/mL; neutralization IC50 [24]: 0.127 µg/mL; neutralization IC90 [24]: 23.4 µg/mL; IC50 [25]: 36.9 µg/mL; IC50 (µg/ml), pseudovirus neutralization [26]: 0.002 µg/mL; IC50 (pseudovirus neutralization) [27]: > 50 µg/mL; IC50 (pseudovirus neutralization) [28]: 0.01 µg/mL; IC50 [29]: > 50 µg/mL; neutralization IC50 [30]: > 50 µg/mL; neutralization IC90 [30]: > 50 µg/mL; IC50 (µg/ml), pseudovirus neutralization [31]: > 50 µg/mL; IC50 (µg/ml), pseudovirus neutralization [32]: > 50 µg/mL; IC50 (µg/ml), pseudovirus neutralization [33]: 0.03 µg/mL; IC50 (pseudovirus neutralization) [34]: > 50 µg/mL; IC50 (pseudovirus neutralization) [35]: 4.35 µg/mL; IC50, TZM-bl pseudovirus neutralization [36]: 0.09 µg/mL; neutralization IC50 [36]: 0.004 µg/mL; neutralization IC90 [36]: > 50 µg/mL; neutralization IC50 [37]: > 50 µg/mL; neutralization IC90 [37]: > 50 µg/mL; IC50 (µg/ml), pseudovirus neutralization [38]: 0.02 µg/mL; IC50 (µg/ml), pseudovirus neutralization [39]: 1.21 µg/mL; IC50 [40]: 5.09 µg/mL; neutralization IC50 [41]: < 0.0025 µg/mL; neutralization IC90 [41]: > 50 µg/mL; IC50 (µg/ml), pseudovirus neutralization [42]: 5.33 µg/mL; IC50 (µg/ml), pseudovirus neutralization [43]: 0.01 µg/mL; IC50 (µg/ml), pseudovirus neutralization [44]: > 50 µg/mL; IC50 (µg/ml), pseudovirus neutralization [45]: 25.1 µg/mL; IC50 [46]: > 50 µg/mL; IC50 [47]: 0.04 µg/mL; neutralization IC50 [48]: 0.102 µg/mL; neutralization IC90 [48]: > 50 µg/mL; neutralization IC50 [49]: > 50 µg/mL; neutralization IC90 [49]: > 50 µg/mL; IC50 (µg/ml), pseudovirus neutralization [50]: 0.003 µg/mL; neutralization IC50 [51]: 0.008 µg/mL; neutralization IC90 [51]: 1.59 µg/mL; IC50 (µg/ml), pseudovirus neutralization [52]: 3.09 µg/mL

Source: patent publication US20160264649A1
